Experiments:
[1] = target: T1, Muc1 mucin carrying the CA6 sialoglycotope (human, UniProt P15941 24-1255, sialylated O-linked carbohydrate carrying the CA6 epitope; positions not stated); experiment: flow cytometry on HPAC cells, apparent Kd
T1 construct: whole, on cells; Target of DS6 on CA6-positive human cell lines (flow cytometry) and in their lysates (dot blots, immunoprecipitation); also called CA6 antigen; DS6 antigen
Experimental: (§1) Human cell lines were obtained from the American Type Culture Collection (ATCC) with the exception of OVCAR5 (Kearse et al., Int. J. Cancer 88(6):866-872 (2000)), OVCAR8 and IGROV1 cells (M. Seiden, Massachusetts General Hospital). All cells were grown in RPMI 1640 supplemented with 4 mM L-glutamine, 50 U/ml penicillin, 50 μg/ml streptomycin (Cambrex Bio Science, Rockland, Me.) and 10% v/v fetal bovine serum (Atlas Biologicals, Fort Collins, Colo.), referred hereafter as culture media. Cells were maintained in a 37° C., 5% CO₂ humidified incubator.
(§2) Cells ([…]) were incubated, on ice for 3-4 h, with serially diluted concentrations of the DS6 antibody prepared in FACS buffer (2% goat serum, RPMI) into 96-well plates. The cells were spun down in a table top centrifuge at 1500 rpm for 5 min at 4° C. After removing the media, the wells were then refilled with 150 μl of FACS buffer. The wash step was then repeated. FITC-labeled goat anti-mouse IgG (Jackson Immunoresearch) was diluted 1:100 to FACS buffer and incubated with the cells for 1 h on ice. The plate was covered in foil to prevent photobleaching of the signal. After two washes, the cells were fixed with 1% formaldehyde and analyzed on a flow cytometer.

[2] = target: T1, Muc1 mucin carrying the CA6 …; experiment: flow cytometry on WISH cells, apparent Kd
[3] = target: T1, Muc1 mucin carrying the CA6 …; experiment: flow cytometry on MCF-7 cells, apparent Kd
Experimental: as §1, §2

[4] = target: T1, Muc1 mucin carrying the CA6 …; experiment: flow cytometry on BT-483 cells, apparent Kd
Experimental: as §2

[5] = target: T1, Muc1 mucin carrying the CA6 …; experiment: flow cytometry on Caov-3 cells, apparent Kd
[6] = target: T1, Muc1 mucin carrying the CA6 …; experiment: flow cytometry on Hs766T cells, apparent Kd
Experimental: as §1, §2

[7] = target: T1, Muc1 mucin carrying the CA6 …; experiment: flow cytometry on Caov-3 cells, apparent Kd; remark: listed apart in the source
[8] = target: T1, Muc1 mucin carrying the CA6 …; experiment: flow cytometry on Hs766T cells, apparent Kd; remark: listed apart in the source
[9] = target: T1, Muc1 mucin carrying the CA6 …; experiment: flow cytometry on HPAF-II cells, apparent Kd
[10] = target: T1, Muc1 mucin carrying the CA6 …; experiment: flow cytometry on MDA-MB-157 cells, apparent Kd
Experimental: as §1, §2

B1: murine DS6 anti-CA6 monoclonal antibody (antibody, IgG1, V domains shown)
VH: QAYLQQSGAELVRSGASVKMSCKASGYTFTSYNMHWVKQTPGQGLEWIGYIYPGNGATNYNQKFKGKATLTADPSSSTAYMQISSLTSEDSAVYFCARGDSVPFAYWGQGTLVTVSA
VL: QIVLTQSPAIMSASPGEKVTITCSAHSSVSFMHWFQQKPGTSPKLWIYSTSSLASGVPARFGGSGSGTSYSLTISRMEAEDAATYYCQQRSSFPLTFGAGTKLELKR
notes: Whole murine monoclonal IgG from the DS6 hybridoma (ATCC PTA-4449); the 3' heavy chain cloning primer was BamIgG1 and the light chain primer was kappa; also called DS6 antibody; muDS6
B1 gave a Kd [1] of 23.5 nM, a Kd [2] of 2.38 nM and a Kd [3] of 2.89 nM. For the same binder, the Kd [4] was 13.7 nM, the Kd [5] was 5.48 nM and the Kd [6] was 2.32 nM. For the same binder, the Kd [7] was 5.48 nM, the Kd [8] was 2.32 nM and the Kd [9] was 2.81 nM. For the same binder, the Kd [10] was 0.197 nM.
